Assay results as given in article PMC7065271 (Chemico-biological interactions, 2020).

Target: the molecule itself
Assay: SEC

B1: Torpedo californica acetylcholinesterase tetramer (enzyme, UniProt P04058-2 22-596, looked up)
chain: DDHSELLVNTKSGKVMGTRVPVLSSHISAFLGIPFAEPPVGNMRFRRPEPKKPWSGVWNASTYPNNCQQYVDEQFPGFSGSEMWNPNREMSEDCLYLNIWVPSPRPKSTTVMVWIYGGGFYSGSSTLDVYNGKYLAYTEEVVLVSLSYRVGAFGFLALHGSQEAPGNVGLLDQRMALQWVHDNIQFFGGDPKTVTIFGESAGGASVGMHILSPGSRDLFRRAILQSGSPNCPWASVSVAEGRRRAVELGRNLNCNLNSDEELIHCLREKKPQELIDVEWNVLPFDSIFRFSFVPVIDGEFFPTSLESMLNSGNFKKTQILLGVNKDEGSFFLLYGAPGFSKDSESKISREDFMSGVKLSVPHANDLGLDAVTLQYTDWMDDNNGIKNRDGLDDIVGDHNVICPLMHFVNKYTKFGNGTYLYFFNHRASNLVWPEWMGVIHGYEIEFVFGLPLVKELNYTAEEEALSRRIMHYWATFAKTGNPNEPHSQESKWPLFTTKEQKFIDLNTEPMKVHQRLRVQMCVFWNQFLPKLLNATETIDEAERQWKTEFHRWSSYMMHWKNQFDHYSRHESCAEL
  stoichiometry N: 4
